In test [1] the target is T1, human GARP and human LAP-TGFβ1 co-expressed on P3U1 cells (human, UniProt Q14392 20-662).
T1 construct: whole, on cells; also called P3U1 cells over-expressing human GARP and LAP-TGFβ1
Nature of the test: flow cytometry, P3U1 cells. The protocol:
This Example describes the binding of anti-LAP antibodies to LAP-TGFβ isoforms and LAP-TGFβ variants. In addition to antibodies 28G11_hIgG1, 22F9_hIgG1, and 20E6_hIgG1, anti-LAP antibodies 17G8_hIgG1, 24E3_hIgG1, and 2C9_(hyb) were also tested in this experiment. Briefly, 4×10⁵ each of (a) HT1080 cells, (b) HT1080 cells overexpressing human LAP-TGFβ1, (c) HT1080 cells overexpressing human LAP-TGFβ2, (d) HT1080 cells overexpressing human LAP-TGFβ3, (e) HT1080 cells overexpressing murine LAP-TGFβ1, (f) P3U1 cells, (g) P3U1 cells overexpressing LAP-TGFβ1 and GARP, and (h) P3U1 cells overexpressing LAP-TGFβ1 and LRRC33 were cultured in 96-well plates. The plates were centrifuged for 5 min at 1,500 rpm, liquid was removed, and cells were resuspended with 200 μL FACS buffer. The plates were centrifuged again, diluted primary antibody was added to each well, and the plates were incubated on ice for 20 minutes, followed by centrifugation. The cells were resuspended in 200 μL FACS buffer, centrifuged again, and resuspended in 50 μL diluted secondary antibody (Alexa647-anti-Human IgG or APC-anti-Mouse IgG). The plates were incubated on ice for 20 minutes in the dark, washed twice with 200 μL FACS buffer, and cells from each well (in 200 μL FACS buffer) were read on the Attune NXT instrument.
For orientation: A flow cytometer gives signals particle by particle.

The target in test [2] is T2, fusion protein of a human IgG1 Fc domain and human LAP-TGFβ1 (human, UniProt P01137 30-390).
T2 construct: printed both as Fc-huB1 and LAP-TGFβ-Fc; also called Fc-huB1; Fc-human LAP
Nature of the test: BLI, 2:1 model, component 2. The protocol:
(§1) The 20E6_H0.2aL1_IgG1 antibody was biotinylated using EZ-Link SulfoNHS-LC-Biotin (ThermoFisher). A streptavidin-functionalized tip was equilibrated in binding buffer (10 mM sodium phosphate, 150 mM sodium chloride, 1% (w/v) bovine serum albumin, 0.05% (w/v) sodium azide, pH 7.4) and dipped in a 10 μg/mL solution of biotinylated anti-LAP in binding buffer for 30 seconds to load the tip with antibody. The antibody-loaded tip was then washed in binding buffer and placed in a solution containing 0-24 nM of a fusion protein having a human IgG1 Fc domain fused to either human LAP-TGFβ1, human LAP-TGFβ2 or human LAP-TGFβ3. The antigen was allowed to bind to antibody for 5 minutes (association phase), and then the tip was moved to binding buffer (dissociation phase). The association and dissociation phases were fit to a 2:1 heterogenous ligand binding model to determine the binding rate constants. As shown in FIG. 21A and Table 17, 20E6_H0.2aL1_IgG1 bound with sub-nanomolar affinity to human LAP-TGFβ1, but not to human LAP-TGFβ2 (FIG. 21B) or LAP-TGFβ3 (FIG. 21C).
(§2) The binding of 20E6_H0.2aL1_IgG1 antibody and 20E6_H0.2aL1_hIgG4mut antibody to LAP-TGFβ1 of various species was examined by bio-layer interferometry using the method described in Example 12, except that the antibody-loaded tip was placed in a solution containing 0-24 nM of a fusion protein having a human IgG1 Fc domain fused to either mouse, rat, cynomolgus monkey, or human LAP-TGFβ1.
In general terms: Biolayer interferometry detects binding as a change in optical thickness at a sensor tip.

The target of test [3] is T3, fusion protein of a human IgG1 Fc domain and cynomolgus monkey LAP-TGFβ1 (human; cynomolgus monkey).
T3 construct: also called cynomolgus monkey LAP-TGFβ-Fc
Kind of test: BLI, 2:1 model, component 2. The protocol:
as §1, §2

In test [4] the target is T4, fusion protein of a human IgG1 Fc domain and rat LAP-TGFβ1 (human; rat, UniProt P17246 30-390, limits assumed).
T4 construct: also called rat LAP-TGFβ-Fc
Kind of test: BLI, 2:1 model, component 2. The protocol:
as §1, §2

Test [5] deals with T5, fusion protein of a human IgG1 Fc domain and mouse LAP-TGFβ1 (human; mouse, UniProt P04202 30-390).
T5 construct: also called mouse LAP-TGFβ-Fc
Nature of the test: BLI, 2:1 model, component 2. The protocol:
as §1, §2

Test [6] has as its target T2, fusion protein of a human IgG1 Fc …. Nature of the test: BLI, 2:1 heterogeneous ligand model, component 2. The protocol: as §1
For test [7], the target named is T6, soluble complex of the ECR3E fragment of human LTBP1 and human LAP-TGFβ1 (human, UniProt Q14766 1286-1466, limits assumed).
T6 construct: domain: third cysteine-rich domain of human LTBP1, flanked by EGFR-like domains; also called ECR3E-LAP-TGFβ1; ECR3E-LAP
Nature of the test: bio-layer interferometry, biotinylated antibody on streptavidin tip. The protocol:
A streptavidin-functionalized tip was equilibrated in binding buffer (10 mM sodium phosphate, 150 mM sodium chloride, 1% (w/v) bovine serum albumin, 0.05% (w/v) sodium azide, pH 7.4) and dipped in a 5 μg/mL solution of biotinylated antibody (i.e., 20E6_H0.2aL1_hIgG1, murine 16F4, or MHG8, a GARP-specific murine IgG2a described in Lienart et al. Science 2018; 362:952-956) in binding buffer for 30 seconds to load the tip with antibody. The antibody-loaded tip was then washed in binding buffer and placed in a solution containing 0-24 nM of a fusion protein containing a human IgG1 Fc domain fused to either human LAP-TGFβ1, the soluble GARP-LAP-TGFβ1 complex, or the soluble ECR3E-LAP-TGFβ1 complex. The antigen was allowed to bind to antibody for 5 minutes (association phase), and then the tip was moved to binding buffer (dissociation phase). The binding and dissociation data for 16F4 and MHG8 were well-fit by a 1:1 binding model. The association and dissociation phases for 20E6_H0.2aL1_hIgG1 antibody were fit to a 2:1 heterogenous ligand binding model to determine the binding rate constants.
As shown in FIG. 24 and Table 21, the 20E6_H0.2aL1_hIgG1 antibody bound to free LAP-TGFβ1 and the soluble GARP-LAP-TGFβ1 complex with nanomolar affinity, but not to the ECR3E-LAP-TGFβ1 complex. […]

T5 sequence (P04202 30-390 limits assumed): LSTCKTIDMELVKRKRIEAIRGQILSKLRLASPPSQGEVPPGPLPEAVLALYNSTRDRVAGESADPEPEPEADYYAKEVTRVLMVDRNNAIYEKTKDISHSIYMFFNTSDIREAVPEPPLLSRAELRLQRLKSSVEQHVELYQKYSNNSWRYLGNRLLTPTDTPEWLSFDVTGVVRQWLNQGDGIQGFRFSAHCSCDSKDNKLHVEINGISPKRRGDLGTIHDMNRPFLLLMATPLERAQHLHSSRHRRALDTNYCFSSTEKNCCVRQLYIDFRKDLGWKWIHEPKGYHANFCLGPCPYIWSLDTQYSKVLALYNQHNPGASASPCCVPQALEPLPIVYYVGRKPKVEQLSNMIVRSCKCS
T4 sequence (P17246 30-390 limits assumed): as the sequence (P04202 30-390 limits assumed) above, with E93D, S99T, L131F, S134T, K202V counted along it
T2 sequence (P01137 30-390 limits assumed): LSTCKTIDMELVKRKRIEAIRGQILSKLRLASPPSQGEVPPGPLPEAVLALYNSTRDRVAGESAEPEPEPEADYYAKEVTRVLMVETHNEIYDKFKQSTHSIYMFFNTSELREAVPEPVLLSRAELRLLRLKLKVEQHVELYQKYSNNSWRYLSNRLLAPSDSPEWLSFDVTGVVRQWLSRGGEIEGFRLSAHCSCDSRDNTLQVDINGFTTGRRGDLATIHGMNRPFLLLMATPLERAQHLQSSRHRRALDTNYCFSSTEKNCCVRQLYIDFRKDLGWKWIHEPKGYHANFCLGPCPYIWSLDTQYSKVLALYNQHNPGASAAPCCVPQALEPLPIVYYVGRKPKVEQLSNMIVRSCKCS
T1 sequence (chain, as listed by the source, chain 1 of 2): as the sequence (P01137 30-390 limits assumed) above
T1 sequence (Q14392 20-662, chain 2 of 2): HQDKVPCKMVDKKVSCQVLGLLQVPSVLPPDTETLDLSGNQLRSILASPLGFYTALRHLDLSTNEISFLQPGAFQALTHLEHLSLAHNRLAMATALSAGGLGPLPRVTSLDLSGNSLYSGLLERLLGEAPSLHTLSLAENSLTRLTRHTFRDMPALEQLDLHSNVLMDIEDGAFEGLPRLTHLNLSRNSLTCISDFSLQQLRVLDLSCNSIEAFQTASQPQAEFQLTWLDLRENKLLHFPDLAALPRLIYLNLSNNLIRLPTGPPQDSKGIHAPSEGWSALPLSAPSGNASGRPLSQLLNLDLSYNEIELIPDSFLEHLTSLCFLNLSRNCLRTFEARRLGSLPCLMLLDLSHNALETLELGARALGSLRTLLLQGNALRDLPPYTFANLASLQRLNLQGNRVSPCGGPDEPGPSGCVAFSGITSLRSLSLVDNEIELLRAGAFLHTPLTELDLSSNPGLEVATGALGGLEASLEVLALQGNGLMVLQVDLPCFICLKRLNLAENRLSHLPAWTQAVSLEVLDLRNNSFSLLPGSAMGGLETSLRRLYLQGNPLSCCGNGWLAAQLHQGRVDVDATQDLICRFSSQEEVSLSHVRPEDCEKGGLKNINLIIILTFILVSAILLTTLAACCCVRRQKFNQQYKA
T6 sequence (chain, as listed by the source limits assumed, chain 1 of 2): as the sequence (P01137 30-390 limits assumed) above
T6 sequence (Q14766 1286-1466 limits assumed, chain 2 of 2): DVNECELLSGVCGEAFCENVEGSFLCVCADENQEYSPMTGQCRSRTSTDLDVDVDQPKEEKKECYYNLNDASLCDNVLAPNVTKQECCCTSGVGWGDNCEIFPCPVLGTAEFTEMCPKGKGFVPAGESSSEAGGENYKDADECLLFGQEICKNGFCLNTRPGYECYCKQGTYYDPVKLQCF

B1: 22F9_hIgG1 (antibody, V domains shown)
VH: QVQLQQPGAELVKPGASVKLSCKASGYTFTSYWMHWVKQRPGQGLEWIGMIHPNSGSTNYNEKFKSKATLTVDKSSSTAYMQLSSLTSEDSAVYYCAYYDYDGFFDVWGTGTTVTVSS
VL: DIVLTQSPASLDVSLGQRATISCRASKSVSTSGYSYMHWYQQKSGQPPKLLIYLASNLESGVPARFSGSGSGTHFTLNIHPVEEEDAATYYCQHSRELPYTFGGGTKLEIK
As to B1, in test [1], the binding result was “binds”.

B2: 20E6_H0.2aL1_hIgG1 (antibody)
heavy: not shown
light: DIQMTQSPSSLSASVGDRVTITCRASQDITNYLNWYQQKPGKAVKLLIYYTSRLHSGVPSRFSGSGSGTDYTLTISSLQPEDFATYFCQQGDTLPWTFGQGTKLEIKRTVAAPSVFIFPPSDEQLKSGTASVVCLLNNFYPREAKVQWKVDNALQSGNSQESVTEQDSKDSTYSLSSTLTLSKADYEKHKVYACEVTHQGLSSPVTKSFNRGEC
notes: also called 20E6_H0.2aL1_IgG1; humanized 20E6
On to B2, for which the Kd (in general, a measure of binding affinity in units of concentration) came out at 970 pM in test [2]; 710 pM in test [3]; 680 pM in test [4]; 560 pM in test [5]; 350 pM in test [6]. For the same molecule, the dissociation rate constant (koff) (commonly the first-order rate constant of dissociation) in test [2] amounted to 0.000657 s⁻¹; in test [3] it was 0.000728 s⁻¹; in test [4], 0.000768 s⁻¹; in test [5] it was 0.00039 s⁻¹; in test [6], 0.000409 s⁻¹. Moreover, the kon (in general, the rate constant with which the complex forms) in test [2] worked out at 680000 M⁻¹ s⁻¹; in test [3], 1.03e+06 M⁻¹ s⁻¹; in test [4], 1.14e+06 M⁻¹ s⁻¹; in test [5], 700000 M⁻¹ s⁻¹; in test [6], 1.18e+06 M⁻¹ s⁻¹. Also, the binding result in test [7] is on record as “no binding (tested: 24 nM)”.

Values taken from patent publication US20220017612A1 (TILOS THERAPEUTICS, published 2022).
